Data set [1] is classed as biochemical. The settings on record: read-out: Cofactor Km.
Data set [2] is classed as biochemical. Particulars: read-out: L-arabinose Km.
Data set [3] is classed as biochemical. Particulars: pH 8.3.
Data set [4] is classed as biochemical. The settings on record: read-out: D-xylose Km.

Where two headings read alike, the source gives them in different places.

B1: Xdh-B. fungorum: D-xylose dehydrogenase (Xdh) from Burkholderia fungorum LB400, protein RBU11704 in the ERGO database (protein)
chain: MYLLSYPEQVDYPMSYAIYPSLSGKTVVITGGGSGIGAAMVEAFARQGARVFFLDVAEDDSLALQQSLSDAPHPPLFRRCDLRSVDAIHSAFAGIVEIAGPIEVLVNNAGNDDRHEVDAITPAYWDERMAVNLRHQFFCAQAAAAGMRKIGRGVILNLGSVSWHLALPNLAIYMSAKAGIEGLTRGLARDLGAAGIRVNCIIPGAVRTPRQMQLWQSPESEAKLVASQCLRLRIEPEHVARMALFLASDDASRCSGRDYFVDAGWYGE
modifications: Burkholderia fungorum LB400
notes: D-xylose dehydrogenase (Xdh) from Burkholderia fungorum LB400, protein RBU11704 in the ERGO database
What is called Km is the concentration of substrate that gives half-maximal velocity. As for B1, the Km in data set [1] turned out to be 260 µM; in data set [2], 43000 µM; in data set [4], 970 µM. The “D-fructose, D-galactose, D-mannose, 2-deoxy-D-glucose, D-glucose-6-phosphate and D-ribose as substrates” value in data set [3] is reported as “not the substrates”. The “Oxidation of D-xylose, L-arabinose and D-glucose into corresponding sugar acid” value in data set [3] was “could be oxidized”.

B2: Xdh-C. crescentus: D-xylose dehydrogenase (Xdh) from Caulobacter crescentus CB15, protein RC001012 in the ERGO database (protein)
chain: MSSAIYPSLKGKRVVITGGGSGIGAGLTAGFARQGAEVIFLDIADEDSRALEAELAGSPIPPVYKRCDLMNLEAIKAVFAEIGDVDVLVNNAGNDDRHKLADVTGAYWDERINVNLRHMLFCTQAVAPGMKKRGGGAVINFGSISWHLGLEDLVLYETAKAGIEGMTRALARELGPDDIRVTCVVPGNVKTKRQEKWYTPEGEAQIVAAQCLKGRIVPENVAALVLFLASDDASLCTGHEYWIDAGWR
modifications: Caulobacter crescentus CB15
notes: D-xylose dehydrogenase (Xdh) from Caulobacter crescentus CB15, protein RC001012 in the ERGO database
On to B2, for which the Km in data set [1] came to 130 µM; in data set [2], 34000 µM; in data set [4] it was 99 µM. Moreover, in data set [3], the “D-fructose, D-galactose, D-mannose, 2-deoxy-D-glucose, D-glucose-6-phosphate and D-ribose as substrates” value was “not the substrates”. The “Oxidation of D-xylose, L-arabinose and D-glucose into corresponding sugar acid” value in data set [3] was “could be oxidized”.

(Values after patent US20110076730A1 (priority 2006, published 2011).)
